Patent US7618800B2, “Glycerol kinase, which has high resistance against preservative” (Toyo Boseki Kabushiki Kaisha, priority 2002, dated 2009)

Columns and labels:
[1] = Thermal stability of glycerol kinase; format: physicochemical; conditions: 50 mM potassium phosphate buffer, pH 7.5, 15-min treatment
Description: Glycerol kinase was dissolved in 50 mM potassium phosphate buffer of pH 7.5 to become about 10 U/ml and stored at each temperature for 15 minutes. Subsequently, glycerol kinase activity was assayed to determine the remaining activity.
After dissolving the glycerol kinase in 50 mM potassium phosphate buffer of pH 7.5 to become about 10 U/ml, glycerol kinases were stored at each temperature for 15 minutes to assay the remaining activity. […] Black circle expresses glycerol kinase of the present invention; black squares expresses glycerol kinase from Thermus fiavus.

[2] = pH stability of glycerol kinase; format: physicochemical; conditions: 20 hr treatment at 25° C.
Description: Glycerol kinase was dissolved in each of 50 mM buffers to become about 10 U/ml and stored at 25° C. for 20 hours. Subsequently, glycerol kinase activity was assayed to determine remaining activity. […] Black circles express the reaction in the presence of acetate buffer; black squares express the reaction in the presence of potassium phosphate buffer; black diamonds express the reaction in the presence of CHES buffer; black triangles express the reaction in the presence of CAPS buffer.

[3] = Km value for ATP (Lineweaver-Burk, assay method 1); format: biochemical; conditions: ATP concentration changed
Description: (§1) Generally, the activity was assayed by the method. Using glycerol as substrate, the enzyme activity was assayed on the basis of the amount of produced glycerol-3-phosphoric acid. By adding 0.1 M HEPES buffer of pH 7.9 to 0.2 ml of 0.5% 4-aminoantipyrine solution, 0.2 ml of 1.5% phenol solution, 200 U of the oxidase of glycerol-3-phosphoric acid, 80 U of peroxidase, and 48.4 mg of ATP, a total volume is adjusted to be 21 ml. The resulting solution was used as the stock solution for the following assays. To 3 ml of the assay stock solution, 50 μl of 0.3 M glycerol solution and 100 μl of the enzyme solution were added and mixed. Each reaction was assayed by recording the absorbance at 500 nm for 3 minutes with a spectrophotometer which is controlled to be 37° C., and calculating the change of the absorbance per minute on the initial linear part (triangle OD test). A blank test was conducted by adding 100 μl of a diluted enzyme solution (20 mM potassium phosphate buffer of pH 7.5 containing 0.2% bovine serum albumin) instead of the enzyme solution and carrying out the same procedures as described above and calculating the change of the absorbance per minute (triangle OD blank). […]

[4] = Glycerol kinase activity by rate assay (relative activity of purified enzyme); format: biochemical; conditions: protein approximated from absorbance at 280 nm
Description: Generally, the activity was assayed by the method. Using glycerol as substrate, the enzyme activity was assayed on the basis of the amount of produced glycerol-3-phosphoric acid. By adding 0.1 M HEPES buffer of pH 7.9 to 0.2 ml of 0.5% 4-aminoantipyrine solution, 0.2 ml of 1.5% phenol solution, 200 U of the oxidase of glycerol-3-phosphoric acid, 80 U of peroxidase, and 48.4 mg of ATP, a total volume is adjusted to be 21 ml. The resulting solution was used as the stock solution for the following assays. To 3 ml of the assay stock solution, 50 μl of 0.3 M glycerol solution and 100 μl of the enzyme solution were added and mixed. Each reaction was assayed by recording the absorbance at 500 nm for 3 minutes with a spectrophotometer which is controlled to be 37° C., and calculating the change of the absorbance per minute on the initial linear part (triangle OD test). A blank test was conducted by adding 100 μl of a diluted enzyme solution (20 mM potassium phosphate buffer of pH 7.5 containing 0.2% bovine serum albumin) instead of the enzyme solution and carrying out the same procedures as described above and calculating the change of the absorbance per minute (triangle OD blank).
Based on the change of the absorbance as obtained, the enzyme activity of glycerol kinase was calculated according to the following formula. […]

[5] = Optimal temperature (assay method 2); format: biochemical; conditions: reaction in 20 mM HEPES buffer, pH 7.9 for 5 minutes
Description: Glycerol kinase activity was assayed after reaction in […], pH 7.9 at each temperature for 5 minutes.
After dividing 3 ml of an active reaction solution (20 mM HEPES buffer of pH 7.9 containing 4 mM ATP and 2 mM magnesium chloride) in a test tube, 0.1 ml of a glycerol kinase solution after dilution to an appropriate concentration (about 1 U/ml of the activity measured according to the assay method 1) was added thereto and mixed thoroughly. Then, the reaction mixture is preliminarily heated at each temperature for about 3 minutes. Then, 0.05 ml of aqueous 0.3 M glycerol solution was added and mixed for initiating the reaction. After the reaction for exact 10 minutes, 1 ml of 1N hydrochloric acid was added to terminate the enzyme reaction. After adding 0.15 ml of the reaction-terminated solution to 3 ml of a chromogenic solution (0.2 M HEPES buffer of pH 7.9 containing 0.01% 4-aminoantipyrin, 0.02% phenol, 5 U/ml peroxidase and 16 U/ml glycerol-3-phosphoric acid oxidase) and mixing, reaction at 37° C. for about 5 minutes was carried out to measure the absorbance at 500 nm. Then, the absorbance of 1 mM L-glycerol-3-phosphoric acid solution was simultaneously measured. The amount of L-glycerol-3-phosphoric acid produced via each of the reactions was determined. […]

[6] = Km value for glycerol (Lineweaver-Burk, assay method 1); format: biochemical; conditions: glycerol concentration changed
Description: as §1

[7] = Optimal pH (assay method 3); format: biochemical; conditions: 50 mM buffers, 37° C.
Description: Glycerol kinase activity was assayed after reaction in each 50 mM buffer at 37° C. for 5 minutes. […] Black circles express the reaction in the presence of 50 mM MES buffer; black squares express the reaction in the presence of 50 mM HEPES buffer; black diamonds express the reaction in the presence of TAPS buffer; black triangles express the reaction in the presence of 50 mM CHES buffer; and white circles express the reaction in the presence of 50 mM glycine-NaOH.
After dividing 3 ml of an active reaction solution (50 mM buffer at each pH, containing 4 mM ATP and 2 mM magnesium chloride) in a test tube, 0.1 ml of a glycerol kinase solution after dilution to an appropriate concentration (about 1 U/ml of the activity measured according to the assay method 1) was added thereto and mixed thoroughly. […] After adding 0.15 ml of the reaction-terminated solution to 3 ml of a chromogenic solution (0.2 M HEPES buffer of pH 7.9 containing 0.01% 4-aminoantipyrin, 0.02% phenol, 5 U/ml peroxidase and 16 U/ml glycerol-3-phosphoric acid oxidase) and mixing, reaction at 37° C. for about 5 minutes was carried out to measure the absorbance at 500 nm. Then, the absorbance of 1 mM L-glycerol-3-phosphoric acid solution was simultaneously measured. The amount of L-glycerol-3-phosphoric acid produced via each enzyme reaction was determined. […]

[8] = Resistance against preservative (remaining activity ratio); format: physicochemical
Description: (§2) After dissolving glycerol kinase from each origin in 50 mM potassium phosphate buffer of pH 7.5 to become about 5 U/ml, each preservative was added at a concentration shown in the figure and stored at 4° C. for one week, to assay the remaining activity. […] The remaining activity ratio of the enzyme from each origin is shown in the order from the top as the activity when 0.3 mM ProClin® 300 is present, 0.8 nM ProClin® 150 is present, 500 mg/L IZU is present, 100 mg/L MIT is present and no preservative is added.
as §2, with “25°” for “4°”, “week” for “week,”, “mM” for “nM”
The resistance against preservative in the present invention can be evaluated on the basis of the remaining activity ratio when about 5 U/mL glycerol kinase coexists with preservative at 25° C. for one week in 50 mM potassium phosphate buffer of pH 7.5.
The Km values of glycerol and ATP were calculated according to the Lineweaver-Burk equation according to the method described in the section “Method for assaying glycerol kinase activity” <method 1>, wherein the concentration of glycerol or ATP was changed to assay the glycerol kinase activity at each substrate concentration. • (8) Relative activity: About 41.2 U/mg • (9) Resistance against the presence of preservative: Remaining activity ratio in coexistence with 100 mg/L MIT in 50 mM potassium phosphate buffer of pH 7.5 is shown in FIGS. 5 and 6. The activity was assayed according to the method 1.

B1: glycerol kinase of the present invention: Recombinant glycerol kinase (SEQ ID NO:1) of Cellulomonas sp. JCM2471 gene, expressed in E. coli KM1 (pCGK12) and purified (protein)
chain: MADYVLAIDQGTTSSRAIVFNHSGEIYSTGQLEHDQIFPRAGWVEHNPEQIWNNVREVVGLALTRGNLTHEDIAAVGITNQRETAVVWDKTTGKPVYNAIVWQDTRTQKIVDELGGDEGAEKYKSIVGLPLATYFSGPKIKWILDNVEGAREKAEKGDLLFGNTDTWVLWNMTGGTEGGVHVTDVTNASRTMLMDLDTLSWREDIAADMGIPLSMLPDIRSSSEVYGHGRPRGLVPGVPIAGILGDQQAATFGQACFEVGQAKNTYGTGNFLLLNTGTEKVMSKNGLLTTVCYKIGDAPAVYALEGSIAVTGSLVQWLRDNLGMFEDAPDVEWLAGKVQDNGGAYFVPAFSGLFAPYWRPDARGALVGLTRYVNRNHIARAALEATAFQSREVVDAMNADSGVDLTELRVDGGMVANELLMQFQADQLGVDVVRPKVAETTALGAAYAAGIAVGFWKGEQDVIDNWAEDKRWSPSMESGERERLYRNWKKAVTKTMEWVDEDVEQ
modifications: Cellulomonas sp. JCM2471
notes: JCM2471 gene, expressed in E. coli KM1 (pCGK12) and purified
For B1, the “Thermal stability (temperature range with remaining activity of 90% or more)” value [1] was at most 45 °C, the “pH stability (pH range with remaining activity of 90% or more)” value [2] was 6.0-10.0 and the Km [3] was about 111 µM. For the same molecule, the Relative activity [4] was “about 41.2 U/mg protein”, the Optimal temperature [5] was “about 50 °C” and the Km [6] was about 6.9 µM. For the same molecule, the “Optimal pH” value [7] was “about 10.0”, the Remaining activity ratio ([8]; 100 mg/L MIT, 50 mM potassium phosphate buffer pH 7.5, storage at 4° C. for one week) was about 100% and the Remaining activity ratio ([8]; 100 mg/L MIT, 50 mM potassium phosphate buffer pH 7.5, storage at 25° C. for one week) was “about 92%”. The “Stability in the coexistence of preservatives (in words)” value ([8]; compared with glycerol kinase derived from Thermus flavus) was “high stability in the coexistence of preservatives” and the Remaining activity ratio ([8]; storage at 25° C. for one week in coexistence with preservatives (sentence names none)) was at least 90%.
